Where two headings read alike, the source gives them in different places.
B1: FGF21: mature human FGF21 protein, endocrine fibroblast growth factor (protein)
chain: HPIPDSSPLLQFGGQVRQRYLYTDDAQQTEAHLEIREDGTVGGAADQSPESLLQLKALKPGVIQILGVKTSRFLCQRPDGALYGSLHFDPEACSFRELLLEDGYNVYQSEAHGLPLHLPGNKSPHRDPAPRGPARFLPLPGLPPALPEPPGILAPQPPDVGSSDPLSMVGPSQGRSPSYAS
modifications: biotin (EZ-Link Sulfo-NHS-LC-Biotin) in the solid-phase binding assay; biotinylated as the labelled ligand in AlphaScreen
notes: mature human FGF21 protein, endocrine fibroblast growth factor
B2: Fc-FGF21: mature human FGF21 polypeptide fused with the human Fc fragment at the N-terminus (protein)
chain: B1 chain
modifications: left off: Fc (human), N-terminal, kept
notes: mature human FGF21 polypeptide fused with the human Fc fragment at the N-terminus

Columns and labels:
β-Klotho/FGFR complex = test: Elk1-luciferase reporter assay in HEK293T reporter cells transiently transfected with full-length WT β-Klotho; assay type: cell-based, human; details: 6 h treatment, mean ± SD of three independent experiments, read-out: EC50, stimulation of Elk1-luciferase reporter activity (KLB WT)
Method: (§1) To measure the signaling activity of β-Klotho mutants, ELK luciferase assay was performed in HEK293T cells that were stably transfected with reporter constructs containing 5 × UAS upstream of luciferase and Gal4 DNA-binding domain fused to ELK1. Briefly, HEK293T reporter cells were maintained in DMEM supplemented with 10% (v/v) FBS (Gibco) and 2 mM GlutaMax (Gibco) in a 37 °C incubator with 5% CO2. Cells were plated on 96-well plates in growth medium and incubated overnight. The next day, cells were transfected with expression vectors encoding full-length β-Klotho WT or mutants using the Lipofectamine 2000 transfection reagent (Invitrogen) according to the manufacturer’s protocol. Cells were serum-starved in DMEM supplemented with 5% (v/v) FBS (Gibco) and 2 mM GlutaMax (Gibco) overnight the day after transfection and treated with FGF21 for 6 hours at 37 °C with 5% CO2, after which the cells were lysed in Bright-Glo luciferase reagent (Promega). Luciferase activity was measured in relative luminescence units on the EnVision Multilabel Plate Reader (PerkinElmer) according to the manufacturer’s instructions. All assays were performed in duplicates. EC50 values were determined from a three-parameter logistic regression model with the least squares fit using GraphPad Prism version 7.

β-Klotho/FGFR1c = test: Elk1-luciferase reporter assay in CHO reporter cells stably expressing human β-Klotho and FGFR1c; assay type: cell-based; details: 4 h treatment, three independent experiments in duplicates, read-out: EC50, stimulation of Elk1-luciferase reporter activity
Method: To measure the signaling activity of Fc-FGF21 mutants, ELK luciferase assay was performed in CHO cells stably transfected with human FGFR1c, β-Klotho and the two reporter constructs described above. CHO reporter cells were maintained in DMEM supplemented with 10% (v/v) dialyzed FBS (GE Healthcare Life Sciences), 6 µg/mL puromycin (Sigma) and 400 μg/mL hygromycin (Invitrogen) in a 37 °C incubator with 5% CO2. Cells were plated on 96-well plates in growth medium and incubated overnight. The next day, cells were serum-starved in Ham’s F-12K Nutrient Mixture (Corning) supplemented with 1% (w/v) BSA (Sigma) overnight. Following starvation, Fc-FGF21 protein was added to cells in starvation medium. Plates were incubated for 4 hours at 37 °C with 5% CO2, after which the cells were lysed in Steady-Glo luciferase reagent (Promega). Luciferase activity was measured and analyzed as described above.

[1] = system: FGFR (expressed endogenously in HEK293T reporter cells); test: Elk1-luciferase reporter assay in HEK293T reporter cells without β-Klotho (no KLB); assay type: cell-based, human; details: d.n.c = did not converge
Method: as §1, with “The next day, cells were transfected with expression vectors encoding full-length β-Klotho WT or mutants using the Lipofectamine 2000 transfection reagent (Invitrogen) according to the manufacturer’s protocol.” left out

Molecule | EC50 (β-Klotho/FGFR complex; Fig 3A) | EC50 (β-Klotho/FGFR complex; Fig 3D) | EC50 (β-Klotho/FGFR1c) | EC50, stimulation of Elk1-luciferase reporter activity (no KLB) ([1]; Fig 3A, mean ± SD of three independent experiments) | EC50, stimulation of Elk1-luciferase reporter activity (no KLB) ([1]; Fig 3D)
B1 | 3.5 ± 1.1 nM | 2.87 ± 1.15 nM | 0.57 ± 0.09 nM | d.n.c | d.n.c
B2 |  |  | 1.85 ± 0.44 nM |  | 

From publication PMC6056499, “A systematic dissection of sequence elements determining β-Klotho and FGF interaction and signaling” (Scientific Reports, 2018)
